Experimental data reported in article PMC7589778.

Molecular target: Human mitochondrial LysRS with a C-terminal HA-tag (human) (UniProt Q15046)
Experiment: AlphaScreen or HTRF

Substance: Integrase from HIV-2_ALL with a C-terminal His-tag (enzyme)
- Kd: 2.4 nM

Substance: Integrase from HIV-2_TRA with a C-terminal His-tag (enzyme)
- Kd: 3.5 nM
